Assay results published in US20130035289A1, “PHARMACEUTICAL COMPOSITION FOR TREATMENT OF THROMBOSIS-RELATED DISEASES COMPRISING A FRAGMENT OF PROLACTIN (PRL)-GROWTH HORMONE (GH)-PLACENTAL LACTOGEN (PL)-FAMILY PROTEIN” (UNIVERSITE DE LIEGE, priority 2010, published 2013).

How the values were obtained:
PAI-1 = molecular target: T1, PAI-1 (Homo sapiens, UniProt P05121); test: Inhibition of PAI-1 anti-proteolytic activity, uPA/plasminogen chromogenic (colorimetric) assay; type: biochemical; conditions: uPA, bovine plasminogen, PAI-1, absorbance 405 nm
T1 construct: gift of Pr; P. Declerck
Method: The main physiological function of PAI-1 is to inhibit uPA and tPA proteolytic activity. […] A chromogenic substrate for plasmin (Spectrozyme PL: 0.5 mM. American Diagnostica INC) in PBS was added to the mixture in 96-well microtitration plates and kept at room temperature. The release of free p-nitro-aniline from the chromogenic substrate was measured spectrophotometrically. The activity of plasmin was determined as the absorbance at 405 nm.

NF-κB = NF-κB activity in ABAE cells; type: cell-based, bovine; conditions: PAI-1 knockdown with si-RNA, 16K PRL 50 nM 1 h
ABAE cells = test: Endothelial cell migration (wound assay); type: cell-based, bovine; conditions: for anti-migratory function: down-regulation of PAI-1 expression by si-RNA
Method: A layer of confluent ABAE cells in a 48-well tissue culture dish coated with 0.2% gelatin was wounded with a head of 200-μl tips. The experiment was performed in the presence of 50 ng/ml VEGF and 10 ng/ml bFGF. […] ID NO: 35); PAI-1 […] ID NO: 36).

uPA = molecular target: T2, uPA (Homo sapiens, UniProt P00749+P05121); test: Double immunofluorescence staining on HUVEC, co-localization with uPA; type: cell-based; conditions: non permeabilized, 160 ng/ml
T2 construct: endogenous in cells; host or cells: HUVEC
Method: HUVEC were grown to 70% on gelatin-coated 35 mm dishes. After incubation at 37° C. with 14K hGH (160 ng/ml) or 16K hPRL (160 ng/ml), cells were washed with PBS at room temperature, non permeabilized and incubated for 1 hr at room temperature with mouse anti uPA (American Diagnostica INC. Greenwich, Conn.) 1/100, Rabbit anti Prolactin (Dako) 1/100 or rabbit anti human GH (home made) 1/100. Endothelial cells were washed in PBS and incubated with FITC horse anti mouse antibody (Vector Laboratory) and Texas Red Goat anti rabbit (Jackson Laboratory).
HUVECs were grown to 70% confluence on gelatin-coated 35-mm dishes. After incubation for 3 h with 14K GH (160 ng/ml) or 16K PRL (160 ng/ml), the cells were washed with PBS at room temperature and incubated for 1 h at room temperature under non-permeabilization conditions with mouse anti uPA (American Diagnostica INC) diluted 1/100, rabbit anti prolactin (Dako) diluted 1/100, or rabbit anti human GH (home made) diluted 1/100. Endothelial cells were washed in PBS and incubated with FITC horse anti mouse (Vector Laboratory) and Texas red goat anti rabbit antibodies (Jackson Laboratory). […] After 3 washes in PBS for 10 min, the slides were covered with coverslips in mounting medium (Victor Laboratories Inc.) and analyzed by fluorescence microscopy.

B16F10 tumor = test: B16F10 subcutaneous tumor model in wild type and PAI-1 deficient mice; type: in vivo, mouse
Method: Homozygous PAI-1 deficient mice (PAI-1^−/−) and the corresponding WT mice (PAI^+/+) from either sex with a mixed genetic background 87% C57BL/6 and 13% 129 strain were used throughout this study. The animal experiment protocol used was approved by the Institutional Ethics Committee of the University of Liege.
Subconfluent B16-F10 cells were trypsinized, washed, and resuspended in PBS. Cell suspension (10^5 cells in 50 μl PBS) was injected subcutaneously into the right flank of mice experiments were performed on seven mice in each group. 18 to 20 days after tumor cells injection, the mice were killed and their tumors harvested. Tumor growth was assessed by measuring the length and width of each tumor every 1 to 2 days and calculating tumor volume by means of the formula: length×width^2×0.5.
16K-Ad is a defective recombinant E1-E3-deleted adenovirus vector encoding a secreted polypeptide consisting of the first 139 amino acids of PRL. This adenovirus vector was constructed as previously described with the help of the Adeno-X expression system (BD Biosciences, Erembodegem, Belgium). Null-Ad is a control adenovirus carrying an empty expression cassette. A recombinant adenovirus vector bearing WT human PAI-1 (AdCMVPAI-1) and control adenovirus (AddRR5) were generated as previously described.
The 16K hPRL adenovirus and their corresponding control were injected into mouse tail vein 2 days before the subcutaneous injection of tumor cells. A second injection was done 8 days after the first one. The wt PAI-1 adenovirus and their control were injected one day after the 16K hPRL adenovirus injections. 10^9 pfu of adenoviruses were used for each tail vein injection.
HUVECs were grown to 70% confluence on gelatin-coated 35-mm dishes. After incubation for 3 h with 14K GH (160 ng/ml) or 16K PRL (160 ng/ml), the cells were washed with PBS at room temperature and incubated for 1 h at room temperature under non-permeabilization conditions with mouse anti uPA (American Diagnostica INC) diluted 1/100, rabbit anti prolactin (Dako) diluted 1/100, or rabbit anti human GH (home made) diluted 1/100. Endothelial cells were washed in PBS and incubated with FITC horse anti mouse (Vector Laboratory) and Texas red goat anti rabbit antibodies (Jackson Laboratory). For PAI-1 staining, the cells were incubated simultaneously with Histag PAI-1 at 800 uM and 16K PRL or 14K GH. […] Cryostat tumor sections (5 μm thick) were fixed in acetone at −20° C. and in 100% methanol at 4° C. and then incubated with the primary antibodies, rat monoclonal anti PECAM-1, and rabbit polyclonal anti-prolactin (DAKO) for 1 hour at room temperature. The slides were washed and incubated with a Cy3 goat anti-rat and an FITC goat anti-rabbit antibody. After 3 washes in PBS for 10 min, the slides were covered with coverslips in mounting medium (Victor Laboratories Inc.) and analyzed by fluorescence microscopy.

endothelial cells = test: Endothelial cell adhesion assay on vitronectin; type: cell-based, bovine; conditions: for increase of cell adhesion: absence of PAI-1 (si-RNA); for pro-adhesion effect: recombinant wild type PAI-1 added to culture medium
Description: ID NO: 35); PAI-1 […] ID NO: 36).

[1] = PAI-1 si-RNA transfected cells plus added human PAI-1
[2] = recombinant wild type PAI-1 added to culture medium

T1 sequence (P05121 24-402): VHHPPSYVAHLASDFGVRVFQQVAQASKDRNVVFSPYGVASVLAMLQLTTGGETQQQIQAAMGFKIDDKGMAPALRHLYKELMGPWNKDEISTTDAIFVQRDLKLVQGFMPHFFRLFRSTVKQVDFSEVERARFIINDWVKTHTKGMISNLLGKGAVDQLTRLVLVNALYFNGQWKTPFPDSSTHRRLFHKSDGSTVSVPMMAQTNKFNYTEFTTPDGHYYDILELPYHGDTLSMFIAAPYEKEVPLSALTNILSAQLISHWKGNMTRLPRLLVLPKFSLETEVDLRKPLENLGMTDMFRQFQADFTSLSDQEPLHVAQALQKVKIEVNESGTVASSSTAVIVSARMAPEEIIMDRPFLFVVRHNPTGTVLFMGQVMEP

B1: 16K hPRL: 16K N-terminal human prolactin fragment, recombinant, produced and purified from E. coli (protein)
chain: LPICPGGAARCQVTLRDLFDRAVVLSHYIHNLSSEMFSEFDKRYTHGRGFITKAINSCHTSSLATPEDKEQAQQMNQKDFLSLIVSILRSWNEPLYHLVTEVRGMQEAPEAILSKAVEIEEQTKRLLEGMELIVSQVHP
PAI-1
  inhibition of PAI-1 function to inhibit uPA and tPA proteolytic activity: significantly inhibited
NF-κB
  16K PRL action on ECs (NF-κB activity): reduced
ABAE cells; [1]
  anti-migratory effect: restored
ABAE cells
  anti-migratory function: reduced significantly
ABAE cells; [2]
  anti-migratory effect: reduced significantly
uPA
  co-localization with uPA: co-localised at the cell surface
B16F10 tumor; PAI-1-deficient mice
  16K PRL localization (immunostaining): only in the bloodstream
B16F10 tumor; PAI-1 deficient mice
  plasma level of 16K PRL at the end of the experiment: remained detectable
B16F10 tumor; PAI-1 deficient mice with systemic expression of human PAI-1 (adenoviral vector)
  anti-tumoral effect: restored
B16F10 tumor; PAI-1 deficient mice, 16K PRL expressed via 16K-Ad
  tumor growth: did not show a tumor growth reduction
B16F10 tumor; PAI-1−/− mice
  tumor blood vessels: appeared normal
B16F10 tumor; mice where human PAI-1 expression was restored
  plasma level of 16K PRL at the end of the experiment: considerably dropped off
B16F10 tumor; wild-type mice and PAI-1−/− mice injected with PAI-1-Ad
  16K PRL localization (immunostaining): observed in tumor tissues
B16F10 tumor; wild-type mice, versus untreated controls
  tumor blood vessels: smaller, collapsed blood vessels
Endothelial cells
  increase of cell adhesion: not seen
  pro-adhesion effect: reduced significantly

B2: 14K hGH: 14K N-terminal fragment of human growth hormone, recombinant, produced and purified from E. coli (protein)
chain: MFPTIPLSRLFDNAMLRAHRLHQLAFDTYQEFEEAYIPKEQKYSFLQNPQTSLSFSESIPTPSNREETQQKSNLELLRISLLLIQSWLEPVQFLRSVFANSLVYGASDSNVYDLLKDLEEGIQTLMGRLEDGSP
PAI-1
  inhibition of PAI-1 function to inhibit uPA and tPA proteolytic activity: significantly inhibited
ABAE cells; [1]
  anti-migratory effect: restored
ABAE cells
  anti-migratory function: reduced significantly
ABAE cells; [2]
  anti-migratory effect: reduced significantly
uPA
  co-localization with uPA: co-localised at the cell surface
Endothelial cells
  increase of cell adhesion: not seen
  pro-adhesion effect: reduced significantly
